By Kd is commonly meant a measure of binding affinity in units of concentration. A low value points to a tighter complex.

For three molecules, Kd results are on record in PMC7038937.

Common to all, as to assay: fluorescence anisotropy
(In general: Polarisation of emitted light reports the rotation of a fluorescent probe.)

In data set [1] the target is STAU1 dsRBD3/4 (Homo sapiens, UniProt O95793-2 102-274).
In data set [2] the target is dsRBD3/4 I105A S106A E110A L113A (Homo sapiens, UniProt O95793-2 102-274, I105A;S106A;E110A;L113A).
Chain of dsRBD3/4 I105A S106A E110A L113A (O95793 183-355 I186A/S187A/E191A/L194A): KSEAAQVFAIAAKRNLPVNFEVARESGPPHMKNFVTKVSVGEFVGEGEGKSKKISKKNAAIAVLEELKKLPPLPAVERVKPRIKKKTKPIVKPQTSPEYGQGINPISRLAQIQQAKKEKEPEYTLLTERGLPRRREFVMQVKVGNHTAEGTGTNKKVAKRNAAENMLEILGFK
Data set [3] addresses dsRBD3/4 E110A L113A (Homo sapiens, UniProt O95793-2 102-274, E110A;L113A).
Data set [4] addresses dsRBD3/4 Q212A Q215A (Homo sapiens, UniProt O95793-2 102-274, Q212A;Q215A).
Data set [5] addresses dsRBD3 I105A S106A (Homo sapiens, UniProt O95793-2 102-181, I105A;S106A).
Data set [6] addresses dsRBD3 E110A L113A (Homo sapiens, UniProt O95793-2 102-181, E110A;L113A).
In data set [7] the target is dsRBD3/4 F109A (Homo sapiens, UniProt O95793-2 102-274, F109A).
Chain of dsRBD3/4 F109A (O95793 183-355 F190A): as the sequence (O95793 183-355 I186A/S187A/E191A/L194A) above, with A4I, A5S, F8A, A9E, A12L counted along it
The target of data set [8] is STAU1 dsRBD4 (Homo sapiens, UniProt O95793-2 205-274).
Chain of STAU1 dsRBD4 (O95793 286-355): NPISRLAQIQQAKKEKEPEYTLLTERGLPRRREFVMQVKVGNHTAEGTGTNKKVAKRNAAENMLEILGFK
The target of data set [9] is dsRBD3/4 E110A L113A Q212A Q215A (Homo sapiens, UniProt O95793-2 102-274, E110A;L113A;Q212A;Q215A).
Chain of dsRBD3/4 E110A L113A Q212A Q215A (O95793 183-355 E191A/L194A/Q293A/Q296A): as the sequence (O95793 183-355 I186A/S187A/E191A/L194A) above, with A4I, A5S, Q111A, Q114A counted along it
For data set [10], the target named is dsRBD3/4 R234A R236A (Homo sapiens, UniProt O95793-2 102-274, R234A;R236A).
Chain of dsRBD3/4 R234A R236A (O95793 183-355 R315A/R317A): as the sequence (O95793 183-355 I186A/S187A/E191A/L194A) above, with A4I, A5S, A9E, A12L, R133A, R135A counted along it
The target of data set [11] is dsRBD3/4 K133A (Homo sapiens, UniProt O95793-2 102-274, K133A).
Chain of dsRBD3/4 K133A (O95793 183-355 K214A): as the sequence (O95793 183-355 I186A/S187A/E191A/L194A) above, with A4I, A5S, A9E, A12L, K32A counted along it
Data set [12] deals with dsRBD4 S208A Q212A Q215A (Homo sapiens, UniProt O95793-2 205-274, S208A;Q212A;Q215A).
Chain of dsRBD4 S208A Q212A Q215A (O95793 286-355 S289A/Q293A/Q296A): as the sequence (O95793 286-355) above, with S4A, Q8A, Q11A counted along it
For data set [13], the target named is dsRBD3/4 S208A Q212A Q215A (Homo sapiens, UniProt O95793-2 102-274, S208A;Q212A;Q215A).
Chain of dsRBD3/4 S208A Q212A Q215A (O95793 183-355 S289A/Q293A/Q296A): as the sequence (O95793 183-355 I186A/S187A/E191A/L194A) above, with A4I, A5S, A9E, A12L, S107A, Q111A, Q114A counted along it
The target in data set [14] is dsRBD3/4 S208A (Homo sapiens, UniProt O95793-2 102-274, S208A).
Chain of dsRBD3/4 S208A (O95793 183-355 S289A): as the sequence (O95793 183-355 I186A/S187A/E191A/L194A) above, with A4I, A5S, A9E, A12L, S107A counted along it
In data set [15] the target is dsRBD3/4 I105A S106A S208A Q212A Q215A (Homo sapiens, UniProt O95793-2 102-274, I105A;S106A;S208A;Q212A;Q215A).
Chain of dsRBD3/4 I105A S106A S208A Q212A Q215A (O95793 183-355 I186A/S187A/S289A/Q293A/Q296A): as the sequence (O95793 183-355 I186A/S187A/E191A/L194A) above, with A9E, A12L, S107A, Q111A, Q114A counted along it
For data set [16], the target named is dsRBD3/4 I105A S106A (Homo sapiens, UniProt O95793-2 102-274, I105A;S106A).
Chain of dsRBD3/4 I105A S106A (O95793 183-355 I186A/S187A): as the sequence (O95793 183-355 I186A/S187A/E191A/L194A) above, with A9E, A12L counted along it
Data set [17] has as its target dsRBD4 Q212A Q215A (Homo sapiens, UniProt O95793-2 205-274, Q212A;Q215A).
Data set [18] addresses STAU1 dsRBD3 (Homo sapiens, UniProt O95793-2 102-181).
The target in data set [19] is dsRBD3 F109A (Homo sapiens, UniProt O95793-2 102-181, F109A).
Chain of dsRBD3 F109A (O95793 183-262 F190A): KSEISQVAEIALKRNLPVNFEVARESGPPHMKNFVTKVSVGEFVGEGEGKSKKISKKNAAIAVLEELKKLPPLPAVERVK
Data set [20] deals with dsRBD3/4 R209A (Homo sapiens, UniProt O95793-2 102-274, R209A).
Chain of dsRBD3/4 R209A (O95793 183-355 R290A): as the sequence (O95793 183-355 I186A/S187A/E191A/L194A) above, with A4I, A5S, A9E, A12L, R108A counted along it
In data set [21] the target is dsRBD3/4 F109A R209A (Homo sapiens, UniProt O95793-2 102-274, F109A;R209A).
Chain of dsRBD3/4 F109A R209A (O95793 183-355 F190A/R290A): as the sequence (O95793 183-355 I186A/S187A/E191A/L194A) above, with A4I, A5S, F8A, A9E, A12L, R108A counted along it

Chain of STAU1 dsRBD3/4 (O95793 183-355): as the sequence (O95793 183-355 I186A/S187A/E191A/L194A) above, with A4I, A5S, A9E, A12L counted along it
Chain of dsRBD3 I105A S106A (O95793 183-262 I186A/S187A): as the sequence (O95793 183-262 F190A) above, with I4A, S5A, A8F counted along it
Chain of dsRBD3 E110A L113A (O95793 183-262 E191A/L194A): as the sequence (O95793 183-262 F190A) above, with A8F, E9A, L12A counted along it
Chain of STAU1 dsRBD3 (O95793 183-262): as the sequence (O95793 183-262 F190A) above, with A8F counted along it
Chain of dsRBD3/4 Q212A Q215A (O95793 183-355 Q293A/Q296A): as the sequence (O95793 183-355 I186A/S187A/E191A/L194A) above, with A4I, A5S, A9E, A12L, Q111A, Q114A counted along it
Chain of dsRBD4 Q212A Q215A (O95793 286-355 Q293A/Q296A): as the sequence (O95793 286-355) above, with Q8A, Q11A counted along it
Chain of dsRBD3/4 E110A L113A (O95793 183-355 E191A/L194A): as the sequence (O95793 183-355 I186A/S187A/E191A/L194A) above, with A4I, A5S counted along it

As for GGCGAGUGCCAGAAGCUGUCUCCUUCGGGAGGCAGUUUCUGGUACUCGCC (structured_RNA) [long ARF1 SBS (19 bp, UUCG loop)], binding in data set [1] was characterised by a dissociation constant (Kd) of 26.5 ± 2.9 nM.
On the same count and under the same terms, in the case of GGAGUGCCAGAAGCUACGGUUUCUGGUACUCC (structured_RNA) [bottom 2/3 ARF1 SBS] it was 31 ± 0.1 nM.
With GGCAGAAGCUGCCUCUUCGGAGGCAGUUUCUGCC (structured_RNA) [top 2/3 ARF1 SBS (sARF1 SBS)], the Kd in data set [2] was 21.8 ± 6.4 nM; in data set [3] it was 18.5 ± 4.3 nM; in data set [4], 15.3 ± 0.7 nM; in data set [5], 147 ± 35.6 nM; in [6] it was 31.5 ± 1.7 nM; in data set [1] it was 17.8 ± 4.3 nM. Moreover, the Kd in data set [7] was 29.7 ± 5.8 nM; in data set [8], 74.8 ± 17.6 nM; in data set [9], 18.5 ± 1.1 nM; in data set [10], 26 ± 9.1 nM; in data set [11], 23.2 ± 9.7 nM; in data set [12], 390 ± 38.4 nM. Also, the Kd in data set [13] stood at 87.2 ± 3 nM; in data set [14], 28 ± 4.4 nM; in data set [15], 43.7 ± 5.2 nM; in data set [16] it was 28.8 ± 2.7 nM; in data set [17], 121 ± 15 nM; in data set [18], 41.4 ± 1.5 nM. Moreover, the Kd came to 98.2 ± 8.7 nM in data set [19], 17.7 ± 4.1 nM in [20] and 27.7 ± 5.5 nM in [21].
